Laboratory results: US20050176069A1 (PHARMACIA AND UPJOHN, published 2005)
Several values for one entry are separate records, joined by “and”; a condition that tells them apart may be missing. Equal entries are not always repeated. Where no end group is shown, it is not given here. [ ]: non-standard residue; d: D form. Tyr(3-I) = N[C@@H](Cc1ccc(O)c(I)c1)C(=O)O; Nle = CCCC[C@H](N)C(=O)O

B1: ILNleRF-NH2 (peptide)
peptide: IL[Nle]RF-NH2
modifications: N-terminus assumed
SMILES: CCCC[C@H](NC(=O)[C@H](CC(C)C)NC(=O)[C@@H](N)[C@@H](C)CC)C(=O)N[C@@H](CCCNC(=N)N)C(=O)N[C@@H](Cc1ccccc1)C(N)=O
notes: Synthetic
B2: VLRF-NH2 (peptide)
peptide: VLRF-NH2
notes: also called C-terminal tetrapeptide VLRF-NH2
B3: 3-Iodo-Y-DVPGVLRF-NH2 (peptide)
peptide: [Tyr(3-I)]DVPGVLRF-NH2
modifications: also: 125I in the radiolabelled probe
notes: N-terminally iodo-Tyr-extended flp18 analog
B4: 3-Iodo-Y-VPGVLRF-NH2 (peptide)
peptide: [Tyr(3-I)]VPGVLRF-NH2
modifications: N-terminus assumed
SMILES: CC(C)C[C@H](NC(=O)[C@@H](NC(=O)CNC(=O)[C@@H]1CCCN1C(=O)[C@@H](NC(=O)[C@@H](N)Cc1ccc(O)c(I)c1)C(C)C)C(C)C)C(=O)N[C@@H](CCCNC(=N)N)C(=O)N[C@@H](Cc1ccccc1)C(N)=O
notes: Synthetic

Biological target: T1, CEGPCR4 (C. elegans)
T1 construct: Expressed in CHO cells
T1 chain: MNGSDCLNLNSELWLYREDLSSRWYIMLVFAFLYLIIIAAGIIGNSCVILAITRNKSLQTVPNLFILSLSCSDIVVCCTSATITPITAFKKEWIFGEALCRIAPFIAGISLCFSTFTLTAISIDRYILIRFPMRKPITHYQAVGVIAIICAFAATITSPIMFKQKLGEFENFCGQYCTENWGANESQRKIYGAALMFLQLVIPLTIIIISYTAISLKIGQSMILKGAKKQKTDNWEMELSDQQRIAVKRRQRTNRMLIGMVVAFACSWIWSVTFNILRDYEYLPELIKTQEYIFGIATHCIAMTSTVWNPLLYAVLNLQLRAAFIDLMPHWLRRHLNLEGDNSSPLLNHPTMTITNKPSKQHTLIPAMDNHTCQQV
Assay: competition binding assay, CEGPCR4/CHO membranes, vs [125I-Y]DVPGVLRF-NH2

Row | Binder | IC50
1 | DVPGVLRF-NH2 [DVPGVLRF-NH2] | 0.5 to 10 nM and 1 to 60 nM
2 | YVPGVLRF-NH2 (Synthetic) [Y-VPGVLRF-NH2] | 1 to 60 nM
3 | DFDGAMPGVLRF-NH2 [DFDGAMPGVLRF-NH2] | 0.5 to 10 nM
4 | EIPGVLRF-NH2 [EIPGVLRF-NH2] | 0.5 to 10 nM
5 | ASPSFIRF-NH2 [ASPSFIRF-NH2] | 0.5 to 10 nM
6 | KPNFLRF-NH2 [KPNFLRF-NH2] | 60000 to 900000 nM
7 | B1 | 60000 to 900000 nM
8 | SPLGTMRF-NH2 [SPLGTMRF-NH2] | 50000 to 500000 nM
9 | SDNFMRF-NH2 [SDNFMRF-NH2] | 50000 to 500000 nM
10 | PDNFMRF-NH2 [PDNFMRF-NH2] | 50000 to 500000 nM
11 | SAEPFGTMRF-NH2 [SAEPFGTMRF-NH2] | 50000 to 500000 nM
12 | EIVFHQISPIFFRF-NH2 [EIVFHQISPIFFRF-NH2] | 50000 to 500000 nM
13 | TNRNFLRF-NH2 [TNRNFLRF-NH2 (Lobster peptide II)] | 50000 to 500000 nM
14 | NGAPQPFVRF-NH2 [NGAPQPFVRF-NH2] | 50000 to 500000 nM
15 | B2 | ~400 nM
16 | GVLRF-NH2 [GVLRF-NH2] | 1 to 60 nM
17 | Ac-GVLRF-NH2 [Ac-GVLRF-NH2] | 1 to 60 nM
18 | PGVLRF-NH2 [PGVLRF-NH2] | 1 to 60 nM
19 | YGVLRF-NH2 (Synthetic) [Y-GVLRF-NH2] | 1 to 60 nM
20 | VPGVLRF-NH2 [VPGVLRF-NH2] | 1 to 60 nM
21 | YPGVLRF-NH2 (Synthetic) [Y-PGVLRF-NH2] | 1 to 60 nM
22 | KSVPGVLRF-NH2 [KSVPGVLRF-NH2] | 0.5 to 10 nM
23 | Ac-VPGVLRF-NH2 [Ac-VPGVLRF-NH2] | 1 to 60 nM
24 | YDVPGVLRF-NH2 [Y-DVPGVLRF-NH2] | 1 to 60 nM
25 | B3 | 1 to 60 nM
26 | B4 | 1 to 60 nM
